Data on 13 molecules can be found in US20220169740A1 (KINDRED BIOSCIENCES, published 2022).

In test [1] the target is T1, human NGF (Sino Biological, Inc.; Catalog No. 11050-HNAC) (human, UniProt P01138 122-241, limits assumed, biotinylated in the Octet assay of Example 3 (sites not given); not biotinylated in the TF1 assay).
T1 construct: also called nerve growth factor; biotinylated NGF
Nature of the test: BLI (Octet); biotinylated human NGF on streptavidin tips, TrkA-Fc 25 ug/mL; 1:1 fit. The method, then: Binding activity of canine, feline, and equine TrkA ECD v2 and v3 fusion polypeptides prepared in Example 2 (SEQ ID NOs: 16, 17, 19, 20, 22, and 23) to commercially-available human NGF was considered. The binding analysis was performed using a biosensor Octet as follows. Briefly, human NGF (Sino Biological, Inc.; Catalog No. 11050-HNAC) was biotinylated. The free unreacted biotin was removed from biotinylated NGF by extensive dialysis. Biotinylated NGF was captured on streptavidin sensor tips. The association of NGF with TrkA-Fc (25 ug/mL) was monitored for 600 seconds. Dissociation was monitored for 600 seconds. A buffer only blank curve was subtracted to correct for any drift. The data were fit to a 1:1 binding model using ForteBio™ data analysis software to determine the kₒₙ, koff, and the Kd. The buffer for dilutions and all binding steps was: 20 mM phosphate, 150 mM NaCl, pH 7.2.
FIG. 1 and FIG. 2 are sensorgrams showing that canine, feline, and equine TrkA ECD v2 and v3 fusion polypeptides all bind NGF. […] Irrelevant canine and feline IgG-Fc fusion proteins were used as a negative control.

Another test deals with human C1q (human, UniProt P02745 23-245; P02746 28-253; P02747 29-245). Nature of the test: method not described.
The target in test [2] is T2, canine FcRn with a poly-His tag / canine B2M heterodimer complex (canine, biotinylated where immobilised on the Biacore chip).
T2 construct: Made in HEK cells, Ni-NTA purified; also called canine FcRn/B2M complex; soluble canine FcRn/B2M complex
T2 chain: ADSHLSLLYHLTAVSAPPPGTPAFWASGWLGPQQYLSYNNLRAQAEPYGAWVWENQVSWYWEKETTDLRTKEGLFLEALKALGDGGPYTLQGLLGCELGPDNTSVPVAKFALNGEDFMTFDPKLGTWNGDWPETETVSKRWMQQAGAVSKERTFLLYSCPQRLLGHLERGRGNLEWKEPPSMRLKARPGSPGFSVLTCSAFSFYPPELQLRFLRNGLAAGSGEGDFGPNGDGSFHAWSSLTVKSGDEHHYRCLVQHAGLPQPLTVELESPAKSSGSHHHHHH
T2 b2m: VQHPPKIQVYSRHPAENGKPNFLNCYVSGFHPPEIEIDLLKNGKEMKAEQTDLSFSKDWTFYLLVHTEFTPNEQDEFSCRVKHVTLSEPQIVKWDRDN
Nature of the test: SPR (Biacore T200), pH 6.0; biotinylated canine FcRn/B2M complex immobilised, Fc polypeptide as analyte. The source says:
The koff of each of the lead variant canine IgG-B polypeptides was further investigated. Biotinylated canine FcRn/B2M complex was immobilized on a Biacore chip and exposed to each variant canine IgG-B polypeptide as an analyte using a Biacore T200 at pH 6.0.
(Surface plasmon resonance follows binding to a sensor surface in real time, without labels.)

Test [3] deals with T2, canine FcRn with a poly-His tag / …. Nature of the test: SPR (Biacore T200), steady state, 25 C, pH 6.0; SASA-tagged Fc polypeptide immobilised on CM5 chip, canine FcRn/B2M complex 12.5-200 nM as analyte. The method, then:
Binding analysis was performed using a Biacore T200. Briefly, the lead variant canine IgG-B Fc polypeptides with an SASA tag were each immobilized to a Series S Sensor Chip CM5. […] A running buffer of 10 mM HEPES, 500 mM NaCl, 3 mM EDTA, 0.005% Tween-20, pH 6.0 was used. A buffer only blank curve was used as a control.

“And” between values parts separate entries of the source, which are not always exact repeats. Equal entries are not always repeated.

The Kd is a measure of binding affinity in units of concentration. Low readings indicate a tighter complex, high ones a looser complex. The koff is the first-order rate constant of dissociation. A higher koff goes with a short-lived complex.

T1 sequence (P01138 122-241 limits assumed): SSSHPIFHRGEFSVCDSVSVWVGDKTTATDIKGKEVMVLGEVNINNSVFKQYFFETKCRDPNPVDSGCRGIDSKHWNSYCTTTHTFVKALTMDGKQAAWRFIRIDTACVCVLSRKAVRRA
human C1q, sequence (P02745 23-245 limits assumed, chain 1 of 3): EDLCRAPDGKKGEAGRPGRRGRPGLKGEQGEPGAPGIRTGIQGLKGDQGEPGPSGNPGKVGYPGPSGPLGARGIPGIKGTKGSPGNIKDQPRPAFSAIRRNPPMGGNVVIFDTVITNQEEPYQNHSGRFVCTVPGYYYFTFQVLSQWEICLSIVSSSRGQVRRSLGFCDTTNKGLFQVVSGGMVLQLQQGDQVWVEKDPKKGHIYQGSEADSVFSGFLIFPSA
human C1q, sequence (P02746 28-253 limits assumed, chain 2 of 3): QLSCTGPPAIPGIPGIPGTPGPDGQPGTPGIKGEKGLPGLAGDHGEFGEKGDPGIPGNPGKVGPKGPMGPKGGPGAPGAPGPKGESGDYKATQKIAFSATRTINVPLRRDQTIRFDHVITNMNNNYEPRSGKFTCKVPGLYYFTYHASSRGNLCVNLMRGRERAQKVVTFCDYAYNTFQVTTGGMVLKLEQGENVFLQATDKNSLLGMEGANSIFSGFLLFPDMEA
human C1q, sequence (P02747 29-245 limits assumed, chain 3 of 3): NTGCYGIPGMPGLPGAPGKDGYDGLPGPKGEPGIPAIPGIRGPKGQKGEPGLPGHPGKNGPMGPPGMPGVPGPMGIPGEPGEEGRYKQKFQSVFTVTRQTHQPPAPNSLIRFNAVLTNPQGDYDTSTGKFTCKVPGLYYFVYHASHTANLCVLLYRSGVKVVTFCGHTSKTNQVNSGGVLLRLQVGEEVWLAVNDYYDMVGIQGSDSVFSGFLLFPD

B1: Canine TrkA ECD v3-wildtype canine IgG-B Fc (Fc fusion)
chain: VSFPASVQLHEAVELHHWCIPFSVDGQPAPSLRWLFNGSVLNETSFIFTEFLEPVANETVRHGCLRLNQPTHVNNGNYTLLAANPSGRAAAFVMAAFMDNPSGGGSGGGSRPPDCPKCPAPEMLGGPSVFIFPPKPKDTLLIARTPEVTCVVVDLDPEDPEVQISWFVDGKQMQTAKTQPREEQFNGTYRVVSVLPIGHQDWLKGKQFTCKVNNKALPSPIERTISKARGQAHQPSVYVLPPSREELSKNTVSLTCLIKDFFPPDIDVEWQSNGQQEPESKYRTTPPQLDEDGSYFLYSKLSVDKSRWQRGDTFICAVMHEALHNHYTQESLSHSPGK
notes: CHO; also called canine TrkA ECD v3 fusion polypeptide; canine TrkA v3
B1 showed a Kd in test [1] of around 1 nM.

B2: Feline TrkA ECD v3-wildtype feline IgG2 Fc (Fc fusion)
chain: VSFPASVQLHAAVELHHWCIPFSVDGQPAPSLRWLFNGSVLNETSFIFTEFLEPAANETVRHGCLRLNQPTHVNNGNYTLLAANPSGRAAASVLAAFMDNPSGGGSGGGSPKTASTIESKTGEGPKCPVPEIPGAPSVFIFPPKPKDTLSISRTPEVTCLVVDLGPDDSNVQITWFVDNTEMHTAKTRPREEQFNSTYRVVSVLPILHQDWLKGKEFKCKVNSKSLPSAMERTISKAKGQPHEPQVYVLPPTQEELSENKVSVTCLIKGFHPPDIAVEWEITGQPEPENNYQTTPPQLDSDGTYFLYSRLSVDRSHWQRGNTYTCSVSHEALHSHHTQKSLTQSPGK
notes: CHO; also called feline TrkA ECD v3 fusion polypeptide; feline TrkA v3
On to B2, for which, in test [1], the dissociation constant Kd is around 1 nM.

B3: Feline TrkA ECD v2-wildtype feline IgG2 Fc (Fc fusion)
chain: VSFPASVQLHAAVELHHWCIPFSVDGQPAPSLRWLFNGSVLNETSFIFTEFLEPAANETVRHGCLRLNQPTHVNNGNYTLLAANPSGRAAASVLAAFMDNPFEFNPEDPIPVSFSPVDSNSTSGDSGGGSGGGSPKTASTIESKTGEGPKCPVPEIPGAPSVFIFPPKPKDTLSISRTPEVTCLVVDLGPDDSNVQITWFVDNTEMHTAKTRPREEQFNSTYRVVSVLPILHQDWLKGKEFKCKVNSKSLPSAMERTISKAKGQPHEPQVYVLPPTQEELSENKVSVTCLIKGFHPPDIAVEWEITGQPEPENNYQTTPPQLDSDGTYFLYSRLSVDRSHWQRGNTYTCSVSHEALHSHHTQKSLTQSPGK
notes: CHO; also called feline TrkA ECD v2 fusion polypeptide; feline TrkA v2
In turn, B3 yielded a Kd in test [1] of around 1 nM.

B4: Canine TrkA ECD v2-wildtype canine IgG-B Fc (Fc fusion)
chain: VSFPASVQLHEAVELHHWCIPFSVDGQPAPSLRWLFNGSVLNETSFIFTEFLEPVANETVRHGCLRLNQPTHVNNGNYTLLAANPSGRAAAFVMAAFMDNPFEFNPEDPIPVSFSPVDTNSTSGDSGGGSGGGSRPPDCPKCPAPEMLGGPSVFIFPPKPKDTLLIARTPEVTCVVVDLDPEDPEVQISWFVDGKQMQTAKTQPREEQFNGTYRVVSVLPIGHQDWLKGKQFTCKVNNKALPSPIERTISKARGQAHQPSVYVLPPSREELSKNTVSLTCLIKDFFPPDIDVEWQSNGQQEPESKYRTTPPQLDEDGSYFLYSKLSVDKSRWQRGDTFICAVMHEALHNHYTQESLSHSPGK
notes: made in CHO cells; also called canine TrkA ECD v2 fusion polypeptide; canine TrkA v2
B4 came in with a Kd in test [1] of around 1 nM.

B5: fusion protein comprising wild-type canine IgG-B Fc (Fc fusion, not shown: large carriers)
chain: PAPEMLGGPSVFIFPPKPKDTLLIARTPEVTCVVVDLDPEDPEVQISWFVDGKQMQTAKTQPREEQFNGTYRVVSVLPIGHQDWLKGKQFTCKVNNKALPSPIERTISKARGQAHQPSVYVLPPSREELSKNTVSLTCLIKDFFPPDIDVEWQSNGQQEPESKYRTTPPQLDEDGSYFLYSKLSVDKSRWQRGDTFICAVMHEALHNHYTQESLSHSPGK
Regarding B5, the binding result in the test with human C1q was “binds”.

B6: wild-type canine IgG-B Fc polypeptide (other)
chain: PAPEMLGGPSVFIFPPKPKDTLLIARTPEVTCVVVDLDPEDPEVQISWFVDGKQMQTAKTQPREEQFNGTYRVVSVLPIGHQDWLKGKQFTCKVNNKALPSPIERTISKARGQAHQPSVYVLPPSREELSKNTVSLTCLIKDFFPPDIDVEWQSNGQQEPESKYRTTPPQLDEDGSYFLYSKLSVDKSRWQRGDTFICAVMHEALHNHYTQESLSHSPGK
notes: Expressed from plasmid pFASEBA in E. coli with an SASA tag; also called wildtype IgG-B Fc polypeptide; not shown: SASA tag
B6 showed a koff in test [2] of 0.122 s⁻¹. In addition, the affinity in test [3], expressed as Kd, was 1250 nM.

B7: variant canine IgG-B Fc polypeptide L(23)Y (other)
chain: PAPEMLGGPSVFIFPPKPKDTLYIARTPEVTCVVVDLDPEDPEVQISWFVDGKQMQTAKTQPREEQFNGTYRVVSVLPIGHQDWLKGKQFTCKVNNKALPSPIERTISKARGQAHQPSVYVLPPSREELSKNTVSLTCLIKDFFPPDIDVEWQSNGQQEPESKYRTTPPQLDEDGSYFLYSKLSVDKSRWQRGDTFICAVMHEALHNHYTQESLSHSPGK
notes: E. coli expressed, with SASA tag; also called Y00; not shown: SASA tag
For the molecule B7, the koff in test [2] worked out at 0.0138 s⁻¹. The molecule also registered a Kd in test [3] of 113 nM.

B8: variant canine IgG-B Fc polypeptide YTE (other, not shown: small tags and cut ends)
chain: PAPEMLGGPSVFIFPPKPKDTLYITREPEVTCVVVDLDPEDPEVQISWFVDGKQMQTAKTQPREEQFNGTYRVVSVLPIGHQDWLKGKQFTCKVNNKALPSPIERTISKARGQAHQPSVYVLPPSREELSKNTVSLTCLIKDFFPPDIDVEWQSNGQQEPESKYRTTPPQLDEDGSYFLYSKLSVDKSRWQRGDTFICAVMHEALHNHYTQESLSHSPGK
notes: also called Leu23Tyr Ala25Thr Thr27Glu
Regarding B8, the Kd in test [3] came to 86.2 nM.

B9: variant canine IgG-B Fc polypeptide L(23)F (other)
chain: PAPEMLGGPSVFIFPPKPKDTLFIARTPEVTCVVVDLDPEDPEVQISWFVDGKQMQTAKTQPREEQFNGTYRVVSVLPIGHQDWLKGKQFTCKVNNKALPSPIERTISKARGQAHQPSVYVLPPSREELSKNTVSLTCLIKDFFPPDIDVEWQSNGQQEPESKYRTTPPQLDEDGSYFLYSKLSVDKSRWQRGDTFICAVMHEALHNHYTQESLSHSPGK
notes: E. coli expressed, with SASA tag; also called F00; not shown: SASA tag
Regarding B9, the koff in test [2] is 0.0631 s⁻¹ and 0.0847 s⁻¹. Besides, the Kd in test [3] is 367 nM.

B10: variant canine IgG-B polypeptide L(23)S (other)
chain: PAPEMLGGPSVFIFPPKPKDTLSIARTPEVTCVVVDLDPEDPEVQISWFVDGKQMQTAKTQPREEQFNGTYRVVSVLPIGHQDWLKGKQFTCKVNNKALPSPIERTISKARGQAHQPSVYVLPPSREELSKNTVSLTCLIKDFFPPDIDVEWQSNGQQEPESKYRTTPPQLDEDGSYFLYSKLSVDKSRWQRGDTFICAVMHEALHNHYTQESLSHSPGK
notes: not shown: SASA tag
For B10, in test [2], the koff is 0.241 s⁻¹.

B11: variant canine IgG-B Fc polypeptide L(23)M (other)
chain: PAPEMLGGPSVFIFPPKPKDTLMIARTPEVTCVVVDLDPEDPEVQISWFVDGKQMQTAKTQPREEQFNGTYRVVSVLPIGHQDWLKGKQFTCKVNNKALPSPIERTISKARGQAHQPSVYVLPPSREELSKNTVSLTCLIKDFFPPDIDVEWQSNGQQEPESKYRTTPPQLDEDGSYFLYSKLSVDKSRWQRGDTFICAVMHEALHNHYTQESLSHSPGK
notes: not shown: SASA tag
The molecule B11 displayed a dissociation rate constant (koff) in test [2] of 0.126 s⁻¹. Further, the Kd in test [3] came out at 406 nM.

B12: fusion protein comprising variant canine IgG-B Fc K(93)R (Fc fusion, not shown: large carriers)
chain: PAPEMLGGPSVFIFPPKPKDTLLIARTPEVTCVVVDLDPEDPEVQISWFVDGKQMQTAKTQPREEQFNGTYRVVSVLPIGHQDWLKGKQFTCRVNNKALPSPIERTISKARGQAHQPSVYVLPPSREELSKNTVSLTCLIKDFFPPDIDVEWQSNGQQEPESKYRTTPPQLDEDGSYFLYSKLSVDKSRWQRGDTFICAVMHEALHNHYTQESLSHSPGK
notes: also called variant canine IgG-B Fc K(93)R fusion protein
Regarding B12, the binding result with human C1q is given as “binds”.

B13: Equine TrkA ECD v3-variant equine IgG2 Fc (Protein A+, C1q-, CD16-) (Fc fusion)
chain: VSFPASVHLQTAVEQHHWCIPFSVDGQPAPTLRWLFNGSVLNETSFIFTEFLESAANETMRHGCLRLNQPTHVNNGNYTLLATNPYGQDSASVMVAFMDNPPPCVLSAEGVIPIPSVPKPQCPPYTHSKFLGGPSVFIFPPNPKDTLMISRTPVVTCVVVNLSDQYPDVQFSWYVDNTEVHSAITKQREAQFNSTYRVVSVLPIQHQDWLSGKEFKCSVTNVGVPQPISRAISRGKGPSRVPQVYVLPPHPDELAKSKVSVTCLVKDFYPPDISVEWQSNRWPELEGKYSTTPAQLDGDGSYFLYSKLSLETSRWQQVESFTCAVMHEALHNHYTKTDISESLGK
notes: CHO; also called equine TrkA ECD v3 fusion polypeptide; equine TrkA v3
In test [1], B13 had a Kd of around 1 nM.
